{"source": "the RNAGym collection of RNA variant scans (doi:10.7554/elife.80360)", "parents": {"B1": {"name": "Hairpin Ribozyme (parent)", "chain": "GUCCUCUUUCACGUGCGCGUGAAAGAGAGAAGUGAACCAGAGAAACACACGUUGUGGUAUAUUACCUGGUA"}}, "data": [{"variants_of": "B1", "experiment": "self-cleavage, relative activity (ratio to wild type); higher = more cleavage; co-transcriptional", "values": [{"variant": "A11C A30C", "self-cleavage": 0.147}, {"variant": "A11C A30U", "self-cleavage": 0.177}, {"variant": "A11C U67G", "self-cleavage": 0.168}, {"variant": "A11C U67A", "self-cleavage": 0.116}, {"variant": "C10G G40C", "self-cleavage": 0.122}, {"variant": "A11C G40A", "self-cleavage": 0.318}, {"variant": "C10G A59C", "self-cleavage": 0.127}, {"variant": "C10G A59G", "self-cleavage": 0.171}, {"variant": "C10A A36U", "self-cleavage": 0.43}, {"variant": "C10A A36G", "self-cleavage": 0.856}, {"variant": "A11C A31U", "self-cleavage": 0.18}, {"variant": "A11C A31G", "self-cleavage": 0.437}, {"variant": "U9G C46G", "self-cleavage": 0.161}, {"variant": "U9G C46U", "self-cleavage": 0.0772}, {"variant": "U9G C46A", "self-cleavage": 0.204}, {"variant": "C10A G32U", "self-cleavage": 0.156}, {"variant": "C10A G32C", "self-cleavage": 0.0945}, {"variant": "C10A A47G", "self-cleavage": 0.2}, {"variant": "C10A A23U", "self-cleavage": 0.666}, {"variant": "C10A A23G", "self-cleavage": 0.6}, {"variant": "A11C G42U", "self-cleavage": 0.214}, {"variant": "A11G A30G", "self-cleavage": 0.269}, {"variant": "A11G A30C", "self-cleavage": 0.146}, {"variant": "C10G A39G", "self-cleavage": 0.267}, {"variant": "C10G A39C", "self-cleavage": 0.357}, {"variant": "C10U G34A", "self-cleavage": 1.04}, {"variant": "C10A U14A", "self-cleavage": 0.661}, {"variant": "C10A U14G", "self-cleavage": 0.632}, {"variant": "A11G A39U", "self-cleavage": 0.495}, {"variant": "A11C C12G", "self-cleavage": 0.903}, {"variant": "A11C C12U", "self-cleavage": 0.766}, {"variant": "A11G A41G", "self-cleavage": 1.01}, {"variant": "U9C U14G", "self-cleavage": 0.754}, {"variant": "C10G U63A", "self-cleavage": 0.158}, {"variant": "C10G U63C", "self-cleavage": 0.104}, {"variant": "C10G U63G", "self-cleavage": 0.113}, {"variant": "C10G G51C", "self-cleavage": 0.585}, {"variant": "A11G A24C", "self-cleavage": 0.746}, {"variant": "U9G A30G", "self-cleavage": 0.0174}, {"variant": "A11C G68U", "self-cleavage": 0.307}, {"variant": "A11C A71C", "self-cleavage": 1.15}, {"variant": "A11C A71G", "self-cleavage": 0.902}, {"variant": "A11C A71U", "self-cleavage": 0.747}, {"variant": "C10A G51C", "self-cleavage": 0.566}, {"variant": "C10G G42C", "self-cleavage": 0.307}, {"variant": "C10G G42U", "self-cleavage": 0.214}, {"variant": "C10U A36G", "self-cleavage": 0.648}, {"variant": "C10U A36C", "self-cleavage": 0.662}, {"variant": "C10A U58A", "self-cleavage": 0.485}, {"variant": "U9G A45U", "self-cleavage": 0.0827}, {"variant": "U9G A45G", "self-cleavage": 0.205}, {"variant": "C10U A41G", "self-cleavage": 0.765}, {"variant": "C10U C12A", "self-cleavage": 0.574}, {"variant": "U9G U60A", "self-cleavage": 0.645}, {"variant": "U9G U60C", "self-cleavage": 1.04}, {"variant": "C10U G21U", "self-cleavage": 0.815}, {"variant": "C10A A44G", "self-cleavage": 0.178}, {"variant": "C10A U70G", "self-cleavage": 0.767}, {"variant": "C10A U70C", "self-cleavage": 0.616}, {"variant": "C10G C12A", "self-cleavage": 0.491}, {"variant": "U9G U14C", "self-cleavage": 0.831}, {"variant": "U9C U70C", "self-cleavage": 0.492}, {"variant": "C10G A26G", "self-cleavage": 0.776}, {"variant": "C10G A26C", "self-cleavage": 0.383}, {"variant": "C10G A26U", "self-cleavage": 0.352}, {"variant": "C10G C46U", "self-cleavage": 0.0874}, {"variant": "C10G A23C", "self-cleavage": 0.416}, {"variant": "U9G U67A", "self-cleavage": 0.0846}, {"variant": "C10U U58C", "self-cleavage": 0.771}, {"variant": "C10U U58G", "self-cleavage": 0.557}, {"variant": "C10A G42A", "self-cleavage": 0.149}, {"variant": "C10A A30C", "self-cleavage": 0.122}, {"variant": "C10A A30G", "self-cleavage": 0.131}, {"variant": "C10A A30U", "self-cleavage": 0.156}, {"variant": "C10A U55G", "self-cleavage": 0.303}, {"variant": "C10A U55C", "self-cleavage": 0.248}, {"variant": "C10A U52G", "self-cleavage": 0.731}, {"variant": "U9G C38G", "self-cleavage": 0.175}, {"variant": "C10A C66U", "self-cleavage": 0.312}, {"variant": "C10A C66A", "self-cleavage": 0.283}, {"variant": "C10A C66G", "self-cleavage": 0.158}, {"variant": "U9G C50U", "self-cleavage": 0.393}, {"variant": "U9G C50A", "self-cleavage": 0.24}, {"variant": "U9G C50G", "self-cleavage": 0.208}, {"variant": "C10G G13C", "self-cleavage": 0.401}, {"variant": "U9G A41G", "self-cleavage": 0.593}, {"variant": "U9C U20G", "self-cleavage": 0.503}, {"variant": "A11G A43C", "self-cleavage": 0.0944}, {"variant": "A11C G13C", "self-cleavage": 0.503}, {"variant": "A11C G13U", "self-cleavage": 0.717}, {"variant": "C10G G57C", "self-cleavage": 0.124}, {"variant": "C10G G57A", "self-cleavage": 0.0913}, {"variant": "A11C C50G", "self-cleavage": 0.321}, {"variant": "U9G U55A", "self-cleavage": 0.179}, {"variant": "C10G A11U", "self-cleavage": 0.358}, {"variant": "C10G A11C", "self-cleavage": 0.799}, {"variant": "C10U A11C", "self-cleavage": 0.696}, {"variant": "C10A U62C", "self-cleavage": 0.241}, {"variant": "C10A U62G", "self-cleavage": 0.162}, {"variant": "C10A G29A", "self-cleavage": 0.111}, {"variant": "U9G", "self-cleavage": 0.701}, {"variant": "C10A A11G", "self-cleavage": 0.644}, {"variant": "C10A A11C", "self-cleavage": 0.624}, {"variant": "C10A C38U", "self-cleavage": 0.425}, {"variant": "C10G C38U", "self-cleavage": 0.435}, {"variant": "C10G C38G", "self-cleavage": 0.133}, {"variant": "A11C G32U", "self-cleavage": 0.063}, {"variant": "A11C G32A", "self-cleavage": 0.179}, {"variant": "A11G A28U", "self-cleavage": 0.447}, {"variant": "U9G A49G", "self-cleavage": 0.558}, {"variant": "C10G A35U", "self-cleavage": 0.517}, {"variant": "U9G A35C", "self-cleavage": 0.637}, {"variant": "C10G U52G", "self-cleavage": 0.631}, {"variant": "U9G A43U", "self-cleavage": 0.111}, {"variant": "U9G A43G", "self-cleavage": 0.116}, {"variant": "A11C C18U", "self-cleavage": 0.94}, {"variant": "A11C C18G", "self-cleavage": 0.775}, {"variant": "U9G A24U", "self-cleavage": 0.483}, {"variant": "C10G A49G", "self-cleavage": 0.343}, {"variant": "U9G A22U", "self-cleavage": 0.564}, {"variant": "U9G A22C", "self-cleavage": 0.677}, {"variant": "C10G G15U", "self-cleavage": 0.851}, {"variant": "C10G G15A", "self-cleavage": 0.624}, {"variant": "U9G U52A", "self-cleavage": 0.705}, {"variant": "U9G U52C", "self-cleavage": 0.546}, {"variant": "U9G U52G", "self-cleavage": 0.492}, {"variant": "C10U G13A", "self-cleavage": 0.662}, {"variant": "C10U A47G", "self-cleavage": 0.169}, {"variant": "C10U A47U", "self-cleavage": 0.109}, {"variant": "C10U A47C", "self-cleavage": 0.257}, {"variant": "C10G G25U", "self-cleavage": 0.481}, {"variant": "C10G G25A", "self-cleavage": 0.211}, {"variant": "U9G U53G", "self-cleavage": 0.656}, {"variant": "A11C A61C", "self-cleavage": 0.24}, {"variant": "U9C U60C", "self-cleavage": 0.981}, {"variant": "C10A G68A", "self-cleavage": 0.177}, {"variant": "C10G G54A", "self-cleavage": 0.375}, {"variant": "C10U G25C", "self-cleavage": 0.487}, {"variant": "U9G C37A", "self-cleavage": 0.117}, {"variant": "U9G C37G", "self-cleavage": 0.229}, {"variant": "C10U A49U", "self-cleavage": 0.0687}, {"variant": "A11C G57U", "self-cleavage": 0.323}, {"variant": "C10G G17A", "self-cleavage": 0.676}, {"variant": "C10G A31G", "self-cleavage": 0.576}, {"variant": "C10G A31C", "self-cleavage": 0.198}, {"variant": "C10A A35C", "self-cleavage": 0.846}, {"variant": "C10G A28C", "self-cleavage": 0.306}, {"variant": "U9G U70G", "self-cleavage": 0.539}, {"variant": "A11C G51U", "self-cleavage": 1.13}, {"variant": "A11C G51C", "self-cleavage": 0.8}, {"variant": "C10A G17U", "self-cleavage": 0.681}, {"variant": "C10U U63C", "self-cleavage": 0.102}, {"variant": "C10U A30U", "self-cleavage": 0.12}, {"variant": "C10A U20A", "self-cleavage": 0.781}, {"variant": "A11C A28C", "self-cleavage": 0.481}, {"variant": "A11C G56C", "self-cleavage": 0.108}, {"variant": "C10U U53G", "self-cleavage": 0.725}, {"variant": "C10U U53A", "self-cleavage": 0.733}, {"variant": "C10G C48G", "self-cleavage": 0.0825}, {"variant": "A11C A44C", "self-cleavage": 0.0983}, {"variant": "A11C A44G", "self-cleavage": 0.197}, {"variant": "C10U A61U", "self-cleavage": 0.246}, {"variant": "U9G C16A", "self-cleavage": 0.668}, {"variant": "U9G C16U", "self-cleavage": 0.857}, {"variant": "A11C A41G", "self-cleavage": 0.701}, {"variant": "A11C U14A", "self-cleavage": 0.533}, {"variant": "A11C C38G", "self-cleavage": 0.0848}]}]}
